Experimental data: article doi:10.1101/2022.11.04.515170, “Insights into cargo sorting by SNX32 in neuronal and non-neuronal cells: physiological implications in neurite outgrowth” (bioRxiv, 2022)
Positions count from the first letter of the chain named. Names may count otherwise.

Assays:
Conditions in all cases: partners not purified
[1] = target: T1, GFP-SNX32 WT (UniProt Q86XE0 1-403); assay: co-IP; GST-GFP nanobody (GBP) on glutathione Sepharose beads, 2 h at 4°C with HEK293T cell lysate overexpressing GFP-tagged and HA-tagged SNX proteins; washed with PBS; immunoblot anti-GFP and anti-HA
T1 construct: Sorting nexin 32 (SNX32), full length; pEGFP C1 SNX32 FL, gift from Prof Peter J Cullen; also called GFP-SNX32 wild type; GFP-tagged SNX32; source: HEK293T or HeLa, transiently transfected, in lysate; SH-SY5Y, lentivirally transduced, stably expressing, in lysate
T1 sequence (looked up): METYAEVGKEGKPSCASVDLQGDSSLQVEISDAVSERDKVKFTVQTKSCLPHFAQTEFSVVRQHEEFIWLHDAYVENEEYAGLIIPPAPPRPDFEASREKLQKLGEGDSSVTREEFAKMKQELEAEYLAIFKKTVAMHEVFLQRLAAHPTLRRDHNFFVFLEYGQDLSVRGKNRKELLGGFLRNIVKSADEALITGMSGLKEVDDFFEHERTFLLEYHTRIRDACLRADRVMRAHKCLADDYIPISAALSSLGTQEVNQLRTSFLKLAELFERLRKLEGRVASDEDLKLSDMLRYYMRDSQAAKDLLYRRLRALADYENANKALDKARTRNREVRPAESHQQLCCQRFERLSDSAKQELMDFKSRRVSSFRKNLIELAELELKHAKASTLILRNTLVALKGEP

[2] = target: T2, GFP-SNX8 (UniProt Q9Y5X2 1-465); assay: as above
T2 construct: Sorting nexin 8 (SNX8); source: HEK293T, transfected, overexpressed, in lysate
T2 sequence (looked up): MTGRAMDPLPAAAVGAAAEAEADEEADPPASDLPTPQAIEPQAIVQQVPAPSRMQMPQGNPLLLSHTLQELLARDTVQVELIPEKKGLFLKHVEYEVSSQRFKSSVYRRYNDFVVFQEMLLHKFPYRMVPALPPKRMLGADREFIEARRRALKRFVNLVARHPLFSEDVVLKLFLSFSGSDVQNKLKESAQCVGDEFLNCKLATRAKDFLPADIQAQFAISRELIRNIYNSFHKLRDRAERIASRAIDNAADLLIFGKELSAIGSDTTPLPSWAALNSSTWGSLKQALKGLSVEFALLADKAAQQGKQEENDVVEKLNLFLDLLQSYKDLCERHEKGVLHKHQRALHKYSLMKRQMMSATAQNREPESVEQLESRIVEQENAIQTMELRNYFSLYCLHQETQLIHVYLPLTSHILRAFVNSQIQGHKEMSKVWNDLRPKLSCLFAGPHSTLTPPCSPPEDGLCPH

[3] = target: T3, GFP-SNX1 (UniProt Q13596 1-522); assay: as above
T3 construct: Sorting nexin 1 (SNX1); pEGFP C1 SNX1, gift from Prof Peter J Cullen; also called GFP-SNX1 WT; source: HEK293T or HeLa, transfected, overexpressed, in lysate

[4] = target: T4, GFP-SNX4 Y258E (UniProt O95219 1-450, Y258E); assay: co-IP; GST-GFP nanobody (GBP) on glutathione Sepharose beads, 2 h at 4°C with HeLa cell lysate overexpressing GFP-SNX4 (WT or mutant) and HA-SNX32 (WT or mutant); immunoblot anti-GFP and anti-HA
T4 construct: Sorting nexin 4 (SNX4) with Y258E in the BAR domain, by site directed mutagenesis of GFP-tagged SNX4; also called pEGFP SNX4Y258E; source: HeLa, transfected, overexpressed, in lysate
T4 sequence (looked up): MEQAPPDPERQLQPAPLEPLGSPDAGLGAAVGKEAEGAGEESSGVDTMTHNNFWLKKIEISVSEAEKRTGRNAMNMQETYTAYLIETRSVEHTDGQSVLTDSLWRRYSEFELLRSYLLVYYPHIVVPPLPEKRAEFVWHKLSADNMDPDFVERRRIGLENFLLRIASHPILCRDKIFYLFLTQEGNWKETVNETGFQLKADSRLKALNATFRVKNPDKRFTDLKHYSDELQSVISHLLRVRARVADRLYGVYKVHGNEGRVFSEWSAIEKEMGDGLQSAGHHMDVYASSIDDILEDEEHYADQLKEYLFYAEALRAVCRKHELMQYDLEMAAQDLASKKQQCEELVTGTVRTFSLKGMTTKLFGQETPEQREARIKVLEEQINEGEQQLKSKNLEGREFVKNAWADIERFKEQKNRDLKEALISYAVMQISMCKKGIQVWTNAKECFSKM

[5] = target: T5, GFP-SNX4 S448R (UniProt O95219 1-450, S448R); assay: as above
T5 construct: Sorting nexin 4 (SNX4) with S448R in the BAR domain, by site directed mutagenesis of GFP-tagged SNX4; also called pEGFP SNX4S448R; source: HeLa, transfected, overexpressed, in lysate
T5 sequence (looked up): T4 sequence (looked up) with E258Y, S448R

[6] = target: T6, GFP-SNX4 (UniProt O95219 1-450); assay: as above
T6 construct: Sorting nexin 4 (SNX4); pEGFP C1 SNX4, gift from Prof Peter J Cullen; also called GFP-SNX4 WT; source: HEK293T or HeLa, transfected, overexpressed, in lysate
T6 sequence (looked up): T4 sequence (looked up) with E258Y

T3 sequence (Q13596 whole entry): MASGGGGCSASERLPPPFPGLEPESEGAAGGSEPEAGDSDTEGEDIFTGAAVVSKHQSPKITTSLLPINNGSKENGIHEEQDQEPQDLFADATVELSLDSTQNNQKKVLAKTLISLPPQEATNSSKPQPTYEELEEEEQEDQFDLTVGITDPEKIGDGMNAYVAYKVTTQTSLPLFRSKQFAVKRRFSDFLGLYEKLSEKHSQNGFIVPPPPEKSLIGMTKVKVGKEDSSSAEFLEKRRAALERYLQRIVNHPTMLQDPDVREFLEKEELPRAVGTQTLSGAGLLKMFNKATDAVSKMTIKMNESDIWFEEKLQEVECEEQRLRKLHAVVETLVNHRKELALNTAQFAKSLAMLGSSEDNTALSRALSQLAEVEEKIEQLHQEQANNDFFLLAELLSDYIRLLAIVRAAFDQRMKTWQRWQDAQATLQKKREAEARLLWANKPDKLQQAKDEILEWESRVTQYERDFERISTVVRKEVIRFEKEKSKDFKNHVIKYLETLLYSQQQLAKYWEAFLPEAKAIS

B1: HA-SNX32 FL (natural protein, UniProt Q86XE0 1-403, looked up)
chain: T1 sequence (looked up)
notes: Sorting nexin 32 (SNX32), full length (FL); pcDNA3 HA N(I) SNX32 FL, subcloned from pEGFP C1 SNX32 FL; also called HA-SNX32 WT; Sorting nexin 32; source: HEK293T or HeLa, transfected, overexpressed, in lysate
ratio of HA to GFP band intensity [1]: 0.85
ratio of HA to GFP band intensity [2]: 0.62
ratio of HA to GFP band intensity [3]: 0.98
ratio of HA to GFP band intensity [4]: 0.33
ratio of HA to GFP band intensity [5]: 0.23

B2: HA-SNX32 R220E (natural protein, UniProt Q86XE0 1-403, looked up)
chain: T1 sequence (looked up) with R220E
notes: SNX32 with R220E, by site directed mutagenesis of HA-tagged SNX32; source: HeLa, transfected, overexpressed, in lysate
ratio of HA to GFP band intensity [6]: 1.02

B3: HA-SNX32 R366E (natural protein, UniProt Q86XE0 1-403, looked up)
chain: T1 sequence (looked up) with R366E
notes: SNX32 with R366E, by site directed mutagenesis of HA-tagged SNX32; source: HeLa, transfected, overexpressed, in lysate
ratio of HA to GFP band intensity [6]: 0.49

B4: HA-SNX32 E256R (natural protein, UniProt Q86XE0 1-403, looked up)
chain: T1 sequence (looked up) with E256R
notes: SNX32 with E256R, by site directed mutagenesis of HA-tagged SNX32; source: HeLa, transfected, overexpressed, in lysate
ratio of HA to GFP band intensity [6]: 0.66

B5: HA-SNX32 Q259R (natural protein, UniProt Q86XE0 1-403, looked up)
chain: T1 sequence (looked up) with Q259R
notes: SNX32 with Q259R, by site directed mutagenesis of HA-tagged SNX32; source: HeLa, transfected, overexpressed, in lysate
ratio of HA to GFP band intensity [6]: 0.75
